Experimental findings from patent US10350158B2, “2′ fluoro-modified RNAs as immunostimulators” (DUKE UNIVERSITY, priority 2013, dated 2019) are described below.

Strand notation (5' to 3'): a small letter for the sugar, then the base; units joined by * are phosphorothioate-linked, units joined directly phosphodiester-linked; [ ] holds rarer units or linkages, { } end groups; capitals alone tell only the bases. {ppp} = triphosphate; r = 2'-OH (RNA); f = 2'-fluoro

One series has as its target T1, human TLR3 (Homo sapiens, UniProt O15455).
T1 construct: host or cells: HEK293 (HEK-hTLR3-NFκB/SEAP)
Nature of the series: HEK-hTLR3-NFκB/SEAP reporter assay. The note with it: QUANTI-BLUE. The format is cell-based. The method, then: (§1) The human TLR3 reporter cell, HEK-hTLR3-NFκB/SEAP was purchased from Invivogen. These cells were stably co-transfected with the human TLR3 gene and an inducible SEAP (secreted embryonic alkaline phosphatase) reporter gene into HEK293 cells. The SEAP gene is placed under the control of NF-κB and AP-1. […] SEAP gene expression was measured using the SEAP detection media QUANTI-BLUE (Invivogen), according to the manufacturer's instructions. FIG. 3B is a graph showing that TLR7 is not stimulated by the ssRNAs. Human TLR7-expressing HEK293 cells were kindly provided by Dr. Todd Brennan (Duke University, Durham, N.C.). Treatment with R848 but not with polyI:C, polyI:C-DF and 5′ppp 2′F 10F-DF complexes stimulated HEK-TLR7 cells to produce the inflammatory cytokine IL-8. The data represent the mean of two experiments. Error bars represent the S.D.

For the next series, the target named is T2, Human TLR7 (Homo sapiens, UniProt Q9NYK1).
T2 construct: expressed in transfected cells; host or cells: HEK293 (HEK-TLR7), gift of Dr. Todd Brennan, Duke University
T2 sequence (Q9NYK1 27-1049): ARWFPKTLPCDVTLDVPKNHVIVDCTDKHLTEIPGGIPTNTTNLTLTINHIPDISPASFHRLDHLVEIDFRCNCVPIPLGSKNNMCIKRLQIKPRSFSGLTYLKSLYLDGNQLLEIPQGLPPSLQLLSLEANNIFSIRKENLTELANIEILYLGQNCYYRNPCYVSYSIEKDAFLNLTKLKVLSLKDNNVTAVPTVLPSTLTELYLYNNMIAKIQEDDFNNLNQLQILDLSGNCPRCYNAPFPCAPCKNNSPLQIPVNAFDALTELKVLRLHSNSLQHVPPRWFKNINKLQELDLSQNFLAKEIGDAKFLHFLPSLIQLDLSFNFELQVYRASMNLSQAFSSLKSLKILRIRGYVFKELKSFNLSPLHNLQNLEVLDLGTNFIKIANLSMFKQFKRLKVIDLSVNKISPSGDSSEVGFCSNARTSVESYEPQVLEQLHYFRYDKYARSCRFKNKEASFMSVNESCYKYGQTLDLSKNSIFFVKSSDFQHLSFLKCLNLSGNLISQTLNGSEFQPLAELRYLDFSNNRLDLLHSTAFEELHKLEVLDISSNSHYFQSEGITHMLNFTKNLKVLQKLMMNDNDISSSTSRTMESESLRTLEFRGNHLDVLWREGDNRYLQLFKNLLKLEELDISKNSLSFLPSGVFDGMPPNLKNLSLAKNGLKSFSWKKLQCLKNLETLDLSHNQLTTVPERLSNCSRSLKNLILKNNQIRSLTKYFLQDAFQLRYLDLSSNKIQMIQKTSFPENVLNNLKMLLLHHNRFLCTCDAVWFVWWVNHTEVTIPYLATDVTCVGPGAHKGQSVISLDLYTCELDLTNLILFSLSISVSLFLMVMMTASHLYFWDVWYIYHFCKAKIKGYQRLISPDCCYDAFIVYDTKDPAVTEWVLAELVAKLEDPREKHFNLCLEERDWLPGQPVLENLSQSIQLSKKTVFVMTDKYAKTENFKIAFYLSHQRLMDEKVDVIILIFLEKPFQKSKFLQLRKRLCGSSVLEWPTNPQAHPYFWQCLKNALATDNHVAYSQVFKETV
The experiment in a line: IL-8 production by human TLR7-expressing HEK293 cells. The format is cell-based. The method, then:
as §1

The nature of series [1]: Serum stability in 10% fetal bovine serum, polyacrylamide gel. The format is in vitro ADME. The note with it: 37° C., 0 to 24 h. As to the method:
(§2) FIG. 6A-FIG. 6D are a set of graphs showing that 2′F modification increases nuclease resistance, cytotoxicity and inflammatory cytokine induction of immunostimulatory 5′ppp ssRNAs. FIG. 6A is a graph showing ability of various modified ssRNAs to inhibit the growth of cells over concentration ranges. WM266-4 cells were treated with transfection reagent alone (mock) or the complex of transfection reagent and 5′ppp 10F containing 2′F pyrimidine, 2′OMe pyrimidine or unmodified pyrimidine (2′OH) at various concentrations. The viral dsRNA analog PolyI:C was used as an experimental control. Growth inhibition was assessed at 72 h post treatments using the MTT assay. FIG. 6B is a set of graphs showing cytokine induction after treatment with the indicated ssRNAs. WM266-4 cells were either treated with transfection reagent alone (mock) or the complex of transfection reagent and 5′ppp 2′OH 10F, 5′ppp 2′F 10F, 5′ppp 2′OMe 10F or poly I:C (0.5 μg/ml each). The secretion of IFNβ and IL-8 by the melanoma cells was analyzed at 24 h after treatment by ELISA. The data represent the mean of three experiments. Error bars represent the S.D.; *P<0.05 (5′ppp 2′F 10F vs 5′ppp 2′OH 10F); P<0.001 (5′ppp 2′OMe 10F vs 5′ppp 2′OH 10F). […] RNAs were analyzed on 12% polyacrylamide gels. […] At 4 h, 8, 12 and 24 h after transfection, total RNAs were isolated and cellular 10F RNA levels were analyzed by RT-PCR. […]

The subject of another series is WM266.4 cells. Nature of the series: Cellular stability of transfected RNA by RT-PCR. The format is in vitro ADME, human. Conditions: 4, 8, 12 and 24 h after transfection. The method, then: as §2

T1 sequence (O15455 24-904): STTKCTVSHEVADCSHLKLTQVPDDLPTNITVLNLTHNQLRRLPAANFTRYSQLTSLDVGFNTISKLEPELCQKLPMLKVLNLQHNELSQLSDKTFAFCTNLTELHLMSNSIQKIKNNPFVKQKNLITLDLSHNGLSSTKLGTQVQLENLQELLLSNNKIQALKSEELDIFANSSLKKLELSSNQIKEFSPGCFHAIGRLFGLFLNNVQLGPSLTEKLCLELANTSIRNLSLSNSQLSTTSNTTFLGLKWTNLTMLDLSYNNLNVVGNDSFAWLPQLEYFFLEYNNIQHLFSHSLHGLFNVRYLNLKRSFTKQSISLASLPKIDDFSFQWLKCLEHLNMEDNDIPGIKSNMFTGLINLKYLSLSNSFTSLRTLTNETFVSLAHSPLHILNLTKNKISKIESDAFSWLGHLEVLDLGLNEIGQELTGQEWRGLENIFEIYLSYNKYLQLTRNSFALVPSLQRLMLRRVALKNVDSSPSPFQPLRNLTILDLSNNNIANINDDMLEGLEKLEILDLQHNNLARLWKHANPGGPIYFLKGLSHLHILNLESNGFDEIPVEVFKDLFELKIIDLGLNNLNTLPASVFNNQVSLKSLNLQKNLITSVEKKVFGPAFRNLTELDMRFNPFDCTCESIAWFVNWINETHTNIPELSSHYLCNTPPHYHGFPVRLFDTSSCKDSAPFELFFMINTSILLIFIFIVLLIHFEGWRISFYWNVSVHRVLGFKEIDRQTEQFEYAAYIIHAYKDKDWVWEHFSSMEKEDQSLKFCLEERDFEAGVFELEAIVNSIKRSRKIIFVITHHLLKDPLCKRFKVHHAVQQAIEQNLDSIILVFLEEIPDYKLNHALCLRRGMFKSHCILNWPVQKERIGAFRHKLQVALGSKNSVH

B1: 10F: 5′ppp 2′F pyrimidine ssRNA aptamer, 71 nt, human melanocytic cell-targeting, SEQ ID NO: 4 (nucleic acid)
chain: {ppp}-rGrGrGrArGrGrAfCrGrAfUrGfCrGrGfUrAfCfCfUrGrAfCrArGfCrAfUfCfUfUrGrAfUrArAfUrGrGfUfCfCfUrAfCrGrGrArGfCfCrGfUfUfCfCrArGrAfCrGrAfCfUfCrGfCfCfCrGrA
On to B1, for which the “stimulation of TLR3 reporter cells (SEAP)” value with human TLR3 is recorded as “not”. Besides, the “stimulation of HEK-TLR7 cells to produce IL-8” value in the series with Human TLR7 is “not”. Also, the serum stability result in series [1] was “resistant to serum degradation”. In addition, in the series on WM266.4 cells, the “cellular stability compared to unmodified RNAs” value is reported as “improve cellular stability”.
